Source: US20240247079A1 (NANJING ANJI BIOLOGICAL TECHNOLOGY, published 2024)
Where a chain is given by its changes, count along the chain named. Each block holds one binder with its values, some of them ahead of it.

Tests used:
[1] = biological target: T1, HMMW micropeptide (recombinant, purified from Escherichia coli BL21) (human); assay: indirect ELISA, HMMW micropeptide coated at 1 ug/ml
T1 construct: also called purified HMMW micropeptide; human HMMW micropeptide
T1 peptide: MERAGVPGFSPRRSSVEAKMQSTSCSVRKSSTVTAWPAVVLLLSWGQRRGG
Experimental: (§1) The antigen coating concentration of the HMMW micropeptide was 1 μg/ml and 5% milk PBS-T was used for sealing. The dilution multiples of eight antibodies were: 1: 3.125 K/6.25 K/12.5 K/25 K/5O K/100 K. The primary antibodies were incubated at 37° C. for 1 h and the secondary antibodies were incubated at 37° C. for 45 min. A color developing solution was added, reaction was performed at 37° C. for 15 min, the reaction was terminated, and the value was read. It can be seen from Table 2 below that the titers of the eight antibodies all reached 1: 100 K, meeting the requirements for subsequent antigen detection.

[2] = biological target: T1, HMMW micropeptide (recombinant, …); assay: indirect ELISA, HMMW micropeptide coated at 1 ug/ml, antibody dilution 1:12.5K
Experimental: as §1

[3] = biological target: T1, HMMW micropeptide (recombinant, …); assay: indirect ELISA, HMMW micropeptide coated at 1 ug/ml, antibody dilution 1:6.25K
Experimental: as §1

[4] = biological target: T1, HMMW micropeptide (recombinant, …); assay: indirect ELISA, HMMW micropeptide coated at 1 ug/ml, antibody dilution 1:50K
Experimental: as §1

[5] = biological target: T1, HMMW micropeptide (recombinant, …); assay: indirect ELISA, HMMW micropeptide coated at 1 ug/ml, antibody dilution 1:25K
Experimental: as §1

[6] = biological target: T1, HMMW micropeptide (recombinant, …); assay: indirect ELISA, HMMW micropeptide coated at 1 ug/ml, antibody dilution 1:100K
Experimental: as §1

[7] = biological target: T1, HMMW micropeptide (recombinant, …); assay: indirect ELISA, HMMW micropeptide coated at 1 ug/ml, antibody dilution 1:3.125K
Experimental: as §1

titer [1]: ≥ 100000 dilution (1:x) | ELISA reading at antibody dilution 1:12.5K [2]: 2.38 | ELISA reading at antibody dilution 1:6.25K [3]: 2.59 | ELISA reading at antibody dilution 1:50K [4]: 1.85 | ELISA reading at antibody dilution 1:25K [5]: 2.13 | ELISA reading at antibody dilution 1:100K [6]: 1.14 | ELISA reading at antibody dilution 1:3.125K [7]: 2.85
B1: Anti-HMMW antibody-1 (antibody, V domains shown)
VH: EVKLEESGGGLVQPGGSMKFSCVASGFTFSNYWMNWVRQSPERGLEWVAEIKLKSNNYATLYAESVKGRFTISRDDSKSSVYLQVNNLRAEDTGIYYCITEIFDYWGQGTTLTVSS
VL: QAVVTQESALTTSPGETVTLTCRSSTGAVTTSNYATWVQEKPDHLFTGLIVGANNRAPGVPARFSGSLIGDKAALTITGAQTEDEAIYFCALWFLNHWVFGGGTKLTVLG
notes: Mouse monoclonal antibody from a BALB/c x SP2/0 hybridoma; also called anti-HMMW-1 antibody

titer [1]: ≥ 100000 dilution (1:x) | ELISA reading at antibody dilution 1:12.5K [2]: 2.56 | ELISA reading at antibody dilution 1:6.25K [3]: 2.81 | ELISA reading at antibody dilution 1:50K [4]: 2.31 | ELISA reading at antibody dilution 1:25K [5]: 2.48 | ELISA reading at antibody dilution 1:100K [6]: 2 | ELISA reading at antibody dilution 1:3.125K [7]: 2.92
B2: Anti-HMMW antibody-5 (antibody, V domains shown)
VH: B1 VH with F20L, A24V, E64A, A90T
VL: QTVVTQESALTTSPGETVTLTCRSSTGSVTTSNYATWVQEKPDHLFTGLIVGANNRAPGVPARFSGSLIGDKAALTITGAQTEDEAIYFCALWFIDHWVFGGGTKLTVL
notes: Mouse monoclonal antibody from a BALB/c x SP2/0 hybridoma; also called anti-HMMW-5 antibody

titer [1]: ≥ 100000 dilution (1:x) | ELISA reading at antibody dilution 1:12.5K [2]: 3.11 | ELISA reading at antibody dilution 1:6.25K [3]: 3.16 | ELISA reading at antibody dilution 1:50K [4]: 2.96 | ELISA reading at antibody dilution 1:25K [5]: 2.97 | ELISA reading at antibody dilution 1:100K [6]: 2.79 | ELISA reading at antibody dilution 1:3.125K [7]: 3.45
B3: Anti-HMMW antibody-8 (antibody, V domains shown)
VH: B1 VH with F20V, R43K, N56D, N57I, Y58D, L61N, Y82S, V85M, I99S
VL: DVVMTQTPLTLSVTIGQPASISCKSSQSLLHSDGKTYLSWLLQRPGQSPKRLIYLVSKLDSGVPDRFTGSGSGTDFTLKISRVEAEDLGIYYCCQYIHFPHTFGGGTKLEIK
notes: Mouse monoclonal antibody from a BALB/c x SP2/0 hybridoma; also called anti-HMMW-8 antibody

titer [1]: ≥ 100000 dilution (1:x) | ELISA reading at antibody dilution 1:12.5K [2]: 2.27 | ELISA reading at antibody dilution 1:6.25K [3]: 2.26 | ELISA reading at antibody dilution 1:50K [4]: 2.14 | ELISA reading at antibody dilution 1:25K [5]: 2.15 | ELISA reading at antibody dilution 1:100K [6]: 1.7 | ELISA reading at antibody dilution 1:3.125K [7]: 2.4
B4: Anti-HMMW antibody-7 (antibody, V domains shown)
VH: B1 VH with M18K, F20L, V23F, R43K, K52Q, L61H, V85M, I99T, Y105F
VL: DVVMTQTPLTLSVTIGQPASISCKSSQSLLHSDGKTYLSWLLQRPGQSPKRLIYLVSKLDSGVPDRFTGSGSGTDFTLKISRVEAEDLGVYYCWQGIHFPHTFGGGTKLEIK
notes: Mouse monoclonal antibody from a BALB/c x SP2/0 hybridoma; also called anti-HMMW-7 antibody

titer [1]: ≥ 100000 dilution (1:x) | ELISA reading at antibody dilution 1:12.5K [2]: 3.23 | ELISA reading at antibody dilution 1:6.25K [3]: 3.35 | ELISA reading at antibody dilution 1:50K [4]: 2.94 | ELISA reading at antibody dilution 1:25K [5]: 3.19 | ELISA reading at antibody dilution 1:100K [6]: 2.73 | ELISA reading at antibody dilution 1:3.125K [7]: 3.33
B5: Anti-HMMW antibody-2 (antibody, V domains shown)
VH: EVKLEESGGGLVQPGGSMKVSCVGSGFTFSNYWMNWVRQSPEKGLEWVAEIRLKSNNYATHYAESVKGRFTISRDDSKRSVYLQMNNLRVEDTGIYYCTTEAVDYWGQGTSVTVSS
VL: DIVMTQAAFSNPVTLGTSASISCRSSKSLLHSNGITYLYWYLQKPGQSPQLLIYQMSNLASGVPDRFSSSGSGTDFTLRISRVEAEDVGVYYCAQNLELPTFGGGTKLEIKR
notes: Mouse monoclonal antibody from a BALB/c x SP2/0 hybridoma; also called anti-HMMW-2 antibody

titer [1]: ≥ 100000 dilution (1:x) | ELISA reading at antibody dilution 1:12.5K [2]: 2.96 | ELISA reading at antibody dilution 1:6.25K [3]: 3.19 | ELISA reading at antibody dilution 1:50K [4]: 2.2 | ELISA reading at antibody dilution 1:25K [5]: 2.55 | ELISA reading at antibody dilution 1:100K [6]: 2.16 | ELISA reading at antibody dilution 1:3.125K [7]: 3.37
B6: Anti-HMMW antibody-6 (antibody, V domains shown)
VH: B5 VH with V20L, G24A, K67T, R79S, V90A, T100L
VL: DIVMTQAAFSNPVTLGTSASISCRSSKSLLHSDGITYLYWFLQKPGQSPQLLIYQMSNLASGVPDRFSSSGSGTDFTLRISRVEAEDVGVYYCAQNLELPTFGGGTKLEIK
notes: Mouse monoclonal antibody from a BALB/c x SP2/0 hybridoma; also called anti-HMMW-6 antibody

titer [1]: ≥ 100000 dilution (1:x) | ELISA reading at antibody dilution 1:12.5K [2]: 3.22 | ELISA reading at antibody dilution 1:6.25K [3]: 3.4 | ELISA reading at antibody dilution 1:50K [4]: 2.92 | ELISA reading at antibody dilution 1:25K [5]: 3.04 | ELISA reading at antibody dilution 1:100K [6]: 2.54 | ELISA reading at antibody dilution 1:3.125K [7]: 3.57
B7: Anti-HMMW antibody-3 (antibody, V domains shown)
VH: EVKLEESGGGLVQPGGSMKLSCVASGFTFSDYWMNWVRQSPEKGLEWLTEIRLKSDNYATHYAESVKGKFTISRDDSKSTVYLQMNNLRAEDTGIYYCSVETMDFWGQGTSVTVSS
VL: QAVVTQESALTTSPGETVTLTCRSSIGAVTTNNYANWVQEKPDRLFTGLIRGTNNRVPGVPARFSGSLIGDKAALTITGAQTEDEAIYFCALWYSNHWVFGGGTKLTVL
notes: Mouse monoclonal antibody from a BALB/c x SP2/0 hybridoma; also called anti-HMMW-3 antibody

titer [1]: ≥ 100000 dilution (1:x) | ELISA reading at antibody dilution 1:12.5K [2]: 3.35 | ELISA reading at antibody dilution 1:6.25K [3]: 3.45 | ELISA reading at antibody dilution 1:50K [4]: 2.81 | ELISA reading at antibody dilution 1:25K [5]: 3.13 | ELISA reading at antibody dilution 1:100K [6]: 2.57 | ELISA reading at antibody dilution 1:3.125K [7]: 3.52
B8: Anti-HMMW antibody-4 (antibody, V domains shown)
VH: B7 VH with D56N, A59L, K69R, T80S, F105Y, T110I
VL: B7 VL with P14S, I26T, N32S, R44H, V57A
notes: Mouse monoclonal antibody from a BALB/c x SP2/0 hybridoma; also called anti-HMMW-4 antibody
